From patent publication US7829303 (ELAN PHARMACEUTICALS, dated 2010) come the findings set out here.

In the assay the target is T1, recombinant human beta secretase (BACE), E. coli construct pQE70-BACE (human, UniProt P56817 57-453).
T1 construct: also called Asp2; memapsin 2
In words: affinity chromatography, peptide immobilised on resin. As to the method: Prior to purification, the pH of the refolded protein was lowered from about 10 to 8.5 with HCl. The solution was loaded onto three 50 ml Q-Sepharose columns (Pharmacia Biotech XK 50). The columns were pre-equilibrated in 0.4 M Urea, 10 mM AMPSO, pH 8.5. After refolded protein was loaded onto the columns, they were washed with 500 ml of 0.4 M Urea, 10 mM TRIS, pH 8.2. The columns were eluted with 180-245 ml of 0.75 M NaCl in 0.4 M Urea 10 mM TRIS buffer, pH 8.2. The eluates were then dialyzed versus 20 mM HEPES, pH 8.0. The samples were then removed from dialysis and dropped into 1 M NaMES, pH 5.7 (0.1 M final concentration). After centrifugation (20 K×g) the supernatant was dropped into 1 M Na-acetate, 1 M NaMES, pH 5.0 (0.2 M Na-acetate, 0.28 M Na-MES was the final concentration). […] This solution was then applied to a 15 ml affinity column equilibrated at the same pH. The column was washed with 6 column volumes of 20 mM sodium acetate buffer pH 4.5, 150 mM NaCl. BACE was eluted at pH 8.5 using about 50 ml of 0.1 M borate buffer. This final step removed any residual contaminants. From 40 liter of *E. coli* cell culture, the amount of protein obtained was 137 mg of highly purified pQE70-BACE construct. Purified pQE70-BACE was dialyzed into 100 mM NaBorate pH 8.5.

Where no end group is shown, it is not given here. [ ]: non-standard residue; d: D form. Sta = CC(C)C[C@H](N)[C@@H](O)CC(=O)O

T1 sequence (P56817 other isoform, or with tags, fused parts or gaps limits assumed): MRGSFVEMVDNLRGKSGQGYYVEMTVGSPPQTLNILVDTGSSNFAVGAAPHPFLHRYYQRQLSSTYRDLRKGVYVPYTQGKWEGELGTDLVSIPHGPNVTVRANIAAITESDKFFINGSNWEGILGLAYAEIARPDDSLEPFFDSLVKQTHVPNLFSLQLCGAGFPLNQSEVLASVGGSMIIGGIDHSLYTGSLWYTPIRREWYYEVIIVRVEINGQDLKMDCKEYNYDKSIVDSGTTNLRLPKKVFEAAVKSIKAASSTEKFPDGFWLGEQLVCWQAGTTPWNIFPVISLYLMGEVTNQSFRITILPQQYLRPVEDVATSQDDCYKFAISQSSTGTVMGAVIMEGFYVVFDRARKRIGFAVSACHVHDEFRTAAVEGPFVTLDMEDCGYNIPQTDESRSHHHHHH

With SEVN[Sta]VAEFRGGC [synthetic peptide Ser-Glu-Val-Asn-Sta-Val-Ala-Glu-Phe-Arg-Gly-Gly-Cys (where Sta=statine)], the binding result was “binds”.
